Patent publication US7067277 (H LUNDBECK A S, dated 2006)

Experiments:
Test in all cases: cell-based or functional assay
human 5HT1F receptor = target: T1, human 5HT1F receptor (human, UniProt P30939 1-366)
T1 sequence (looked up): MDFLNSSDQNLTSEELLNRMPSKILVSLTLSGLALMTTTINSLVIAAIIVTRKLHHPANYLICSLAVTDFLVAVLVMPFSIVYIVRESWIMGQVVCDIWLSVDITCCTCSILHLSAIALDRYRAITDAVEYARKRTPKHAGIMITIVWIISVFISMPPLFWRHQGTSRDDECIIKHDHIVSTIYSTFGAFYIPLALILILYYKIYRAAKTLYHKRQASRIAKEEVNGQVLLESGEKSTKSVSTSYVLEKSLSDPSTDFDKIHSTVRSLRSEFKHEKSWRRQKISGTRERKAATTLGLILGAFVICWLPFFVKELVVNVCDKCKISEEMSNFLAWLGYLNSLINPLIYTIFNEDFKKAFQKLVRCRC

rat NTR1 receptor = rat NTR1 receptor (rat, UniProt P20789 1-424)
Chain of rat NTR1 receptor (P20789 whole entry): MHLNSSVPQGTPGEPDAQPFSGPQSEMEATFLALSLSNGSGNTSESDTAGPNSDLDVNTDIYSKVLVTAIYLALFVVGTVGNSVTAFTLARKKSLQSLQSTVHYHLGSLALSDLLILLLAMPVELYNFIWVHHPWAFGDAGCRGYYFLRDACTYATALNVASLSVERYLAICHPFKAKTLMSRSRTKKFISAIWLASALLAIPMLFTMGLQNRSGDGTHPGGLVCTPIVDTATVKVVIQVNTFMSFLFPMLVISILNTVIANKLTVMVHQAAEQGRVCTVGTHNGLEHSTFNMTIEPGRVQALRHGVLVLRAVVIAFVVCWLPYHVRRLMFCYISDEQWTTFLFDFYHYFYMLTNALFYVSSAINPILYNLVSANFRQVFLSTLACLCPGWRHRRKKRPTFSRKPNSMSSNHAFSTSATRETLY

[1] = target: human dopamine D5 receptor (human, UniProt P21918 1-477)
Chain of human dopamine D5 receptor (P21918 whole entry): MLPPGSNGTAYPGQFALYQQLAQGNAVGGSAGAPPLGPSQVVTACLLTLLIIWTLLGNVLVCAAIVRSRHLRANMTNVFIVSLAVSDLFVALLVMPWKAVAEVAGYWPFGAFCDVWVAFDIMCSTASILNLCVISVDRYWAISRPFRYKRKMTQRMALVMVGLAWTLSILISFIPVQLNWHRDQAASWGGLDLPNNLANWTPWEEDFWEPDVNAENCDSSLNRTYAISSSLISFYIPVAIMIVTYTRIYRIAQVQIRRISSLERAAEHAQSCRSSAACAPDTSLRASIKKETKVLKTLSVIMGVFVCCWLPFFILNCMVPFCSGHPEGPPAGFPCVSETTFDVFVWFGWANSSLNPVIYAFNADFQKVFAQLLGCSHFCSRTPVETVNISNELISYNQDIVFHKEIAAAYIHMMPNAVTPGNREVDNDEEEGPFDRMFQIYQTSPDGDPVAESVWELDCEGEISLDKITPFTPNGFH

[2] = target: T2, human α2B adrenergic receptor (human, UniProt P18089 1-450)
T2 sequence (looked up): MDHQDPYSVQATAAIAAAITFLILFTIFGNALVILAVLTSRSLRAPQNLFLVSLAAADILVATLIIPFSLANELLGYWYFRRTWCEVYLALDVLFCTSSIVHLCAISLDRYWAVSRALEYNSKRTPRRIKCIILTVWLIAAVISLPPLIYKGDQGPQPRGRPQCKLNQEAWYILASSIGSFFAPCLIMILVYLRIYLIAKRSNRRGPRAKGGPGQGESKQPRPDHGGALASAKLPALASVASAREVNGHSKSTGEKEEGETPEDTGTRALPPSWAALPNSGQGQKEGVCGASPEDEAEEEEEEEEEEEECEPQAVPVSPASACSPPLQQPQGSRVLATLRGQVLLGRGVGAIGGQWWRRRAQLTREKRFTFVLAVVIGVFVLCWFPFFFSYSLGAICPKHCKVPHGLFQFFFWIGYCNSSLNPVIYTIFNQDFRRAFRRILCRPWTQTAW

human 5HT4 receptor = human 5HT4 receptor (human, UniProt Q13639 1-388)
Chain of human 5HT4 receptor (Q13639 whole entry): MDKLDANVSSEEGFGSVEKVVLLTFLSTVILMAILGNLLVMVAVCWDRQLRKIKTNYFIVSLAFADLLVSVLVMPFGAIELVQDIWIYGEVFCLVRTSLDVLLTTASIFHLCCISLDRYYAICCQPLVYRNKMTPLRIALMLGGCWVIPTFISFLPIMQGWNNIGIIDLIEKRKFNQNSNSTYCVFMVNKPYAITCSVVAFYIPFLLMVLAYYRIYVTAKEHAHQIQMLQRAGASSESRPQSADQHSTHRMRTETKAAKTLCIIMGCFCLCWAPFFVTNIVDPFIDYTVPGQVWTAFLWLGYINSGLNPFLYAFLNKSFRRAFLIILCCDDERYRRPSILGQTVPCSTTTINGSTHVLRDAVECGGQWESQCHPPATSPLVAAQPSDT

mouse 5HT5A receptor = mouse 5HT5A receptor (mouse, UniProt P30966 1-357)
Chain of mouse 5HT5A receptor (P30966 whole entry): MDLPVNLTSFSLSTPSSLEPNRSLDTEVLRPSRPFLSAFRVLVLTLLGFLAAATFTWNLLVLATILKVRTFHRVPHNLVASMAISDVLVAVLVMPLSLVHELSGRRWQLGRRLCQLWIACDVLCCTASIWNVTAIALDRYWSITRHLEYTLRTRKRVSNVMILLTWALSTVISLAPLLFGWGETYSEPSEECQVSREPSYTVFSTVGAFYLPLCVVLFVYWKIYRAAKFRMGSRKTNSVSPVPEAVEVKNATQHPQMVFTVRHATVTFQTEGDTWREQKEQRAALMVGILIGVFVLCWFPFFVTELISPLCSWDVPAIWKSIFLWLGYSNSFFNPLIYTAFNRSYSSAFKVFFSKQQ

rat GALR2 receptor = target: T3, rat GALR2 receptor (rat, UniProt O08726 1-372)
T3 sequence (looked up): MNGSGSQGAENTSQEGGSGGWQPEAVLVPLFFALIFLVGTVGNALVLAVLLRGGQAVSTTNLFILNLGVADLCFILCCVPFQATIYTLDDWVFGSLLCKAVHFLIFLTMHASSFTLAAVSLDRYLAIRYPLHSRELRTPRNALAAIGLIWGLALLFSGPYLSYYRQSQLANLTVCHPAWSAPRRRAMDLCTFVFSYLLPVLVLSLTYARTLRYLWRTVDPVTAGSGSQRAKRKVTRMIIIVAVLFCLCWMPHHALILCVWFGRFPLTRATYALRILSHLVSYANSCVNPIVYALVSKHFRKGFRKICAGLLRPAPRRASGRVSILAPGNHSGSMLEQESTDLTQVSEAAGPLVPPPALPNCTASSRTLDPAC

[3] = target: human dopamine D2 receptor (human, UniProt P14416 1-443)
Chain of human dopamine D2 receptor (P14416 whole entry): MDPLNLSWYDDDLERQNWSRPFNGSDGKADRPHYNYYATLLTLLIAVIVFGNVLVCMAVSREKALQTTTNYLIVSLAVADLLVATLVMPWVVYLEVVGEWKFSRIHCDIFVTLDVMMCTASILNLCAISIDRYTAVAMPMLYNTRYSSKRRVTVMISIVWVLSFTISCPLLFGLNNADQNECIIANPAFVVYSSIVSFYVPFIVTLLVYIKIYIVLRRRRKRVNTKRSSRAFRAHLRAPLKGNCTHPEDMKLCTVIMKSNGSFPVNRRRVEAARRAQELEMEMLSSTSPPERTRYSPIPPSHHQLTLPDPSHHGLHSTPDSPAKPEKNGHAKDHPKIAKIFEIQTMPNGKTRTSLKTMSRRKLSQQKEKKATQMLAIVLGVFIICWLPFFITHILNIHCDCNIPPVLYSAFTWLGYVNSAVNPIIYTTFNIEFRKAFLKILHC

rat GALR3 receptor = target: T4, rat GALR3 receptor (rat, UniProt O88626 1-370)
T4 sequence (looked up): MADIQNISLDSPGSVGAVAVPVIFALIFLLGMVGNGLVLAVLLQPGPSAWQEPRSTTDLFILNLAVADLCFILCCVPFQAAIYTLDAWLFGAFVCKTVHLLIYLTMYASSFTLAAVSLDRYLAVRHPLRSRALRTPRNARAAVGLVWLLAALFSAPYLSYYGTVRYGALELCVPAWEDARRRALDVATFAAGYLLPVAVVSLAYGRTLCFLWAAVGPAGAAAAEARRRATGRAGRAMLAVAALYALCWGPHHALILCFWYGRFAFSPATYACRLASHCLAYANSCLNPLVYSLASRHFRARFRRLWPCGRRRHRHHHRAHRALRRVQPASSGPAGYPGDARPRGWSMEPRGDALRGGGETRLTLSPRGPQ

human 5HT6 receptor = human 5HT6 receptor (human, UniProt P50406 1-440)
Chain of human 5HT6 receptor (P50406 whole entry): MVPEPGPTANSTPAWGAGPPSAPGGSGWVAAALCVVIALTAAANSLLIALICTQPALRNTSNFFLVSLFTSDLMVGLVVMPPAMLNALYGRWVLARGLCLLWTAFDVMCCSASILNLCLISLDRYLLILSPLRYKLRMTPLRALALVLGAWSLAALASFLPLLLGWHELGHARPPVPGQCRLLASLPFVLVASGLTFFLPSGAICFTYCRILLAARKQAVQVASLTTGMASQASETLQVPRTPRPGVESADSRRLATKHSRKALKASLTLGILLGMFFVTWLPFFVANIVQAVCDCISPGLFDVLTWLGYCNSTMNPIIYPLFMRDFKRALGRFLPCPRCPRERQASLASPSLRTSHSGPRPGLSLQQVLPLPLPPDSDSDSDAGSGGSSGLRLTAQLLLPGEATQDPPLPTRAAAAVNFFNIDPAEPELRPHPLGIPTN

human Y5 receptor = target: T5, human Y5 receptor (human, UniProt Q15761 1-445)
T5 sequence (looked up): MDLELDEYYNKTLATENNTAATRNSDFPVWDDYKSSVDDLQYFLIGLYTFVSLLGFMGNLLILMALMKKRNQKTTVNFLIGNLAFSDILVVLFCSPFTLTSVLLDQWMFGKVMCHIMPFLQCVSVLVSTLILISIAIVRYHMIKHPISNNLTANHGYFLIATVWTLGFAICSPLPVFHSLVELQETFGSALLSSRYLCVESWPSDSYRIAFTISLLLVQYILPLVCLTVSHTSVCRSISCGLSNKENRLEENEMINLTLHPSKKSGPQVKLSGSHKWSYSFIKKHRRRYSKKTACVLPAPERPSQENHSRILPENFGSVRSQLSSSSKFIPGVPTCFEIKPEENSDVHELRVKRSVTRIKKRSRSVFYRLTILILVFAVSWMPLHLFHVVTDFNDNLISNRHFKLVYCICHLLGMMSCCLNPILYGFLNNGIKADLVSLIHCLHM

human 5HT1B receptor = human 5HT1B receptor (human, UniProt P28222 1-390)
Chain of human 5HT1B receptor (P28222 whole entry): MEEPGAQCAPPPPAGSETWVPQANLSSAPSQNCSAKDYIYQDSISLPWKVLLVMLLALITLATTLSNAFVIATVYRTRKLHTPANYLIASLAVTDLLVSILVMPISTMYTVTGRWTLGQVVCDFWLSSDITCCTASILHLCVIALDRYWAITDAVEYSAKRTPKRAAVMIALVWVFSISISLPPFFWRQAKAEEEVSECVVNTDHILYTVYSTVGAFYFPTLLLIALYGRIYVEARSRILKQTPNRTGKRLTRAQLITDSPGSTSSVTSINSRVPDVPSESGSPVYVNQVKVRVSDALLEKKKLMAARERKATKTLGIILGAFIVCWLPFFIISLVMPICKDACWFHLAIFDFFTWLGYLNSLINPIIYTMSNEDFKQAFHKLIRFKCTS

human GALR3 receptor = target: T6, human GALR3 receptor (human, UniProt O60755 1-368)
T6 sequence (looked up): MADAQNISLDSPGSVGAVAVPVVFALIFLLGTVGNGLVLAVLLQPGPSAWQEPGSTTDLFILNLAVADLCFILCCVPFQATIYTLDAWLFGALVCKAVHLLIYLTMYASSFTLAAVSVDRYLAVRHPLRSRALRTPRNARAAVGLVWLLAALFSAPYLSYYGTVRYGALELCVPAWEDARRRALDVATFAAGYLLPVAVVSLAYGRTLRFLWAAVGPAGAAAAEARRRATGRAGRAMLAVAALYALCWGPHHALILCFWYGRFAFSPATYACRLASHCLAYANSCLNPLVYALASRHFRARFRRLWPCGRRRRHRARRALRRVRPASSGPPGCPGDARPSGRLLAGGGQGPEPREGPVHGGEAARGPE

human 5HT1E receptor = human 5HT1E receptor (human, UniProt P28566 1-365)
Chain of human 5HT1E receptor (P28566 whole entry): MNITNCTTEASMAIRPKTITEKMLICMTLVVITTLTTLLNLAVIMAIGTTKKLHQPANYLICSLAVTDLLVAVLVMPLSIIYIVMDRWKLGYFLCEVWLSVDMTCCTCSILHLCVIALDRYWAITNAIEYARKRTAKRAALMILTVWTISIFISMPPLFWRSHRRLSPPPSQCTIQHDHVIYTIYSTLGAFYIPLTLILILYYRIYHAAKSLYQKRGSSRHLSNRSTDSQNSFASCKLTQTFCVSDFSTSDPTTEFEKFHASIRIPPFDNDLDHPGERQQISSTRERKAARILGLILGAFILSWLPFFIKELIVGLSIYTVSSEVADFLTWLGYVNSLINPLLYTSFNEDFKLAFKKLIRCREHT

| Binder | max Ca2+ signal, COS-7, FLIPR; agonist 5HT (human 5HT1F receptor) | max Ca2+ signal, COS-7, FLIPR; agonist NT (rat NTR1 receptor) | max Ca2+ signal, COS-7, FLIPR; agonist DA [1] | max Ca2+ signal, COS-7, FLIPR; agonist NE [2] | max Ca2+ signal, COS-7, FLIPR; agonist 5HT (human 5HT4 receptor) | max Ca2+ signal, COS-7, FLIPR; agonist 5HT (mouse 5HT5A receptor) | max Ca2+ signal, COS-7, FLIPR; agonist GAL (rat GALR2 receptor) | max Ca2+ signal, COS-7, FLIPR; agonist DA [3] | max Ca2+ signal, COS-7, FLIPR; agonist GAL (rat GALR3 receptor) | max Ca2+ signal, COS-7, FLIPR; agonist 5HT (human 5HT6 receptor) | max Ca2+ signal, COS-7, FLIPR; agonist NPY (human Y5 receptor) | max Ca2+ signal, COS-7, FLIPR; agonist 5HT (human 5HT1B receptor) | max Ca2+ signal, COS-7, FLIPR; agonist GAL (human GALR3 receptor) | max Ca2+ signal, COS-7, FLIPR; agonist 5HT (human 5HT1E receptor) |
| --- | --- | --- | --- | --- | --- | --- | --- | --- | --- | --- | --- | --- | --- | --- |
| Human Gαq/z5 (Ala→Ser substitution at position 171) (other) MTLESIMACCLSEEAKEARRINDEIERQLRRDKRDARRELKLLLLGTGESGKSTFIKQMRIIHGSGYSDEDKRGFTKLVYQNIFTAMQAMIRAMDTLKIPYKYEHNKAHAQLVREVDVEKVSAFENPYVDAIKSLWNDPGIQECYDRRREYQLSDSTKYYLNDLDRVADPSYLPTQQDVLRVRVPTTGIIEYPFDLQSVIFRMVDVGGQRSERRKWIHCFENVTSIMFLVALSEYDQVLVESDNENRMEESKALFRTIITYPWFQNSSVILFLNKKDLLEEKIMYSHLVDYFPEYDGPQRDAQAAREFILKMFVDLNPDSDKIIYSHFTCATDTENIRFVFAAVKDTILQLNLKYIGLC | 0 fluorescence units | 11200 fluorescence units | 782 fluorescence units | 4520 fluorescence units | 2160 fluorescence units | 0 fluorescence units | 4860 fluorescence units | 15600 fluorescence units | 2800 fluorescence units | 210 fluorescence units | 6410 fluorescence units | 405 fluorescence units | 804 fluorescence units | 202 fluorescence units |
| C. elegans Gαq/z5 (other) MACCLSEEAREQKRINQEIEKQLQRDKRNARRELKLLLLGTGESGKSTFIKQMRIIHGQGYSEEDKRAHIRLVYQNVFMAIQSMIRAMDTLDIKFGNESEELQEKAAVVREVDFESVTSFEEPYVSYIKELWEDSGIQECYDRRREYQLTDSAKYYLSDLRRLAVPDYLPTEQDILRVRVPTTGIIEYPFDLEQIIFRMVDVGGQRSERRKWIHCFENVTSIMFLVALSEYDQVLVECDNENRMEESKALFRTIITYPWFTNSSVILFLNKKDLLEEKILYSHLADYFPEYDGPPRDPIAAREFILKMFVDLNPDADKIIYSHFTCATDTENIRFVFAAVKDTILQHNLKYIGLC | 243 fluorescence units | 14500 fluorescence units | 657 fluorescence units | 4980 fluorescence units | 1010 fluorescence units | 351 fluorescence units | 4200 fluorescence units | 7620 fluorescence units | 2300 fluorescence units | 1290 fluorescence units | 5310 fluorescence units | 929 fluorescence units | 1520 fluorescence units | 229 fluorescence units |
| C. elegans Gαq/z9 (other) MACCLSEEAREQKRINQEIEKQLQRDKRNARRELKLLLLGTGESGKSTFIKQMRIIHGQGYSEEDKRAHIRLVYQNVFMAIQSMIRAMDTLDIKFGNESEELQEKAAVVREVDFESVTSFEEPYVSYIKELWEDSGIQECYDRRREYQLTDSAKYYLSDLRRLAVPDYLPTEQDILRVRVPTTGIIEYPFDLEQIIFRMVDVGGQRSERRKWIHCFENVTSIMFLVALSEYDQVLVECDNENRMEESKALFRTIITYPWFTNSSVILFLNKKDLLEEKILYSHLADYFPEYDGPPRDPIAAREFILKMFVDLNPDADKIIYSHFTCATDTENIRFVFAAVKDTILQNNLKYIGLC | 384 fluorescence units | 6110 fluorescence units | 797 fluorescence units | 5140 fluorescence units | 1700 fluorescence units | 270 fluorescence units | 4470 fluorescence units | 4300 fluorescence units | 2970 fluorescence units | 2290 fluorescence units | 6680 fluorescence units | 1220 fluorescence units | 2050 fluorescence units | 238 fluorescence units |
